# Data as given in paper PMC11310688.
# Assays:
# [1] = target: Halo-HA-Nesp2-SR48∼56 (Nesprin-2 spectrin repeats 48-56) (mouse) (UniProt Q6ZWQ0)
# [2] = target: dynactin subunit p150^Glued, Q14203-1; test: co-immunoprecipitation (IP: anti-Halo) with immunoblot quantification; details: HEK293 cell lysate, bars mean ± SEM, parent: est. 1.0, read off a plot
# [3] = target: kinesin heavy chain (KHC) (UniProt P33176); test: as above; details: HEK293 cell lysate; n = 5 independent experiments; bars mean ± SEM; parent: est. 1.0; read off a plot
"velocity of rapalog-induced peroxisome transport by Nesp2-SR48ΔKASH-FRB (5655-6767aa) along microtubules in MRC5 cells, both directions [1]",Substance,also measured
–,Halo-HA-Nesp2-SR48-KASH (Nesprin-2 SR48-56 and the KASH domain) (from UniProt Q6ZWQ0-1) ALALE>AAAAA; SLFTE>AAAAA; RLARE>AAAAA; AAWLG>VVWLG,ratio to parent ([2]; n = 5 independent experiments): 0.19; ratio to parent [3]: 0.22
–,Halo-HA-Nesp2-SR48-KASH (Nesprin-2 SR48-56 and the KASH domain) (from UniProt Q6ZWQ0-1) ALALE>AAAAA; SLFTE>AAAAA; RLARE>AAAAA; LEWD>LEAA; AAWLG>VVWLG,ratio to parent ([2]; 3 data points drawn for this bar): 0.08
–,Halo-HA-Nesp2-SR48-KASH (Nesprin-2 SR48-56 and the KASH domain) (from UniProt Q6ZWQ0-1) LEWD>LEAA,ratio to parent ([2]; n = 5 independent experiments): 0.98
1 µm/s,dynactin subunit p150^Glued (from UniProt Q14203-1 1-1278) (natural protein),–
1 µm/s,dynein heavy chain (DHC) (from UniProt Q14204 1-4646) (natural protein),–
1 µm/s,kinesin heavy chain (KHC) (from UniProt P33176 1-963) (natural protein),–

Substance,"velocity of rapalog-induced peroxisome transport by Nesp2-SR48ΔKASH-FRB (5655-6767aa) along microtubules in MRC5 cells, both directions [1]",also measured
Bicaudal D2 (BicD2) (from UniProt Q8TD16 1-824) (natural protein),1 µm/s,–
